Measured values: patent US20230151106A1, “OFATUMUMAB FOR TREATING MS WHILE MAINTAINING SERUM IgG” (NOVARTIS AG, priority 2020, published 2023)
“Also recorded” adds a separate entry of the source. Where two headings read alike, the source gives them in different places.

Experiments:
COVID-19 = settings: for COVID-19 symptoms duration / Outcome: serious case
Description: Confirmed or suspected cases of COVID-19 infection in patients receiving ofatumumab in the open-label extension study ALITHIOS were reviewed (data cutoff: Dec. 21, 2020)
COVID-19 cases were classified as confirmed if SARS-CoV2 positive test results were available, or patient was reported to be diagnosed with COVID-19
Suspected cases of COVID-19 were classified as suspected if without a positive SARS-CoV2 test or definitive diagnosis
The following COVID-19 case characteristics were assessed:
*Serious criteria is based on the regulatory reporting definition established by ICH, for the purposes of regulatory reporting obligations, and consists of fatal, life-threatening, hospitalization and medically significant

[1] = test system: multiple sclerosis patients; settings: in vivo
Description: (§3) Serum IgG/IgM levels were monitored at baseline, Week (W) 4, W12 and every 12 weeks, see FIG. 1.

[2] = in vivo, sc, 20 mg
B cells = experiment: B-cell repletion after study treatment discontinuation (Pool C2, OMS115102); type: in vivo, human; settings: study OMS115102, approximately 48 weeks post study
CD20 receptor on B-cells = experiment: Nonclinical ADCC activity comparison; type: cell-based; settings: ofatumumab compared to ocrelizumab and rituximab
[3] = test system: multiple sclerosis patients; experiment: Infections in relation to IgM/IgG levels <LLN vs >=LLN in ofatumumab MS studies
Description: as §3

MS patients [4] = settings: human, in vivo
MS patients [5] = settings: cited from earlier work
IgG levels = experiment: Metanalysis of Example 1 versus Derfuss et al. (pooled OPERA), IgG levels; type: in vivo, human
Description: In a metanalysis, the results of Example 1 and the results obtained by Derfuss et al. were compared.

IgM = experiment: Long term study (Example 5), IgM levels; type: in vivo, human; settings: OMB long-term group, FIGS. 16 and 17
Description: (§1) 2”, preferably version 13.0 dated 2018-11.
(§2) Patients were subjected to a long term treatment.

CD20 receptor = biological target: T1, CD20 receptor (Homo sapiens, UniProt P11836); experiment: B-cell binding studies, off-rate; settings: in comparison to rituximab
T1 construct: endogenous in cells
T1 sequence (P11836 1-297): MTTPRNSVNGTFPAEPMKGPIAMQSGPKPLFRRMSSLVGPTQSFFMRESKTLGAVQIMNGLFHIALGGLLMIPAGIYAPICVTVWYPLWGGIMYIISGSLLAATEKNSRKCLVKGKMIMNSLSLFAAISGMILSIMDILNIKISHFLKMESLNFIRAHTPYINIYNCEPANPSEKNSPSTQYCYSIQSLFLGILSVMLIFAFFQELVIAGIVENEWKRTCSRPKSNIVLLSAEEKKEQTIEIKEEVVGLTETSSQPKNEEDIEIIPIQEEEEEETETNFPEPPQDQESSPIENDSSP

serum IgG [6] = settings: in vivo
Description: (§4) In the present application serum Ig levels can preferably be determined by immunoturbidimetry. Preferably a Roche cobas® Analyzer was used, especially module c of the cobas® analyser. In a preferred embodiment Ig levels can be determined by using a cobas® c 311 analyzer. It is further preferred that IgG measurements are carried out as described in the cobas® leaflet “IGG-2 Tina-quant IgG Gen. 2”, preferably version 11.0 dated 2016-02 and IgM measurements as described in the leaflet “IGM-2 Tina-quant IgM Gen. 2”, preferably version 13.0 dated 2018-11.
(§5) Serum samples were preferably kept at 2-8° C. before measurement.
(§6) Patients were randomised (1:1) to receive either ofatumumab 20 mg sc injections every 4 weeks (after an initial loading regimen of 20 mg sc doses on Days 1, 7 and 14) or teriflunomide 14 mg orally once daily, for up to 30 months.
as §3

CD19+ B-cells = experiment: CD19+ B-cell depletion in ASCLEPIOS; type: in vivo, human
Description: ASCLEPIOS I and II are double-blind, double-dummy, active comparator-controlled, parallel-group, innovative, adaptive design, multicentre trials. Patients were randomised (1:1) to receive either ofatumumab 20 mg sc injections every 4 weeks (after an initial loading regimen of 20 mg sc doses on Days 1, 7 and 14) or teriflunomide 14 mg orally once daily, for up to 30 months. […] Patients aged 18-55 years with an Expanded Disability Status Scale (EDSS) score (according to Kurtzke, Neurology. 1983, Nov; 33(11): 1444-52) of 0-5.5 at screening who experienced ≥1 relapse in the past year or ≥2 relapses in the past 2 years or a positive gadolinium-enhancing (Gd+) MRI scan during the year before randomisation were included.

serum IgM = experiment: Serum IgM levels in ASCLEPIOS I/II (Pool C2); type: in vivo, human
Description: In the present application serum Ig levels can preferably be determined by immunoturbidimetry. Preferably a Roche cobas® Analyzer was used, especially module c of the cobas® analyser.
as §5
ASCLEPIOS I and II are double-blind, double-dummy, active comparator-controlled, parallel-group, innovative, adaptive design, multicentre trials. Patients were randomised (1:1) to receive either ofatumumab 20 mg sc injections every 4 weeks (after an initial loading regimen of 20 mg sc doses on Days 1, 7 and 14) or teriflunomide 14 mg orally once daily, for up to 30 months.

MS patients [7] = experiment: General safety in MS clinical trials with ofatumumab (neutrophils, PML, hepatitis B, malignancy, cytopenia); settings: human, in vivo
IgG = experiment: Long term study (Example 5), IgG levels; type: in vivo, human; settings: OMB long-term group, FIG. 14
Description: as §1, §2

serum IgG [8] = experiment: Serum IgG levels in ASCLEPIOS I/II (Pool C2)
Description: as §4, §5, §6, §3

ofatumumab: recombinant human monoclonal immunoglobulin G1 (IgG1) antibody that binds to human CD20
COVID-19 outcome: Ongoing (COVID-19; Non-serious (n = 29)): 0
COVID-19 outcome: Recovered (COVID-19; Non-serious (n = 29)): 29
COVID-19 outcome: Recovering (COVID-19; Non-serious (n = 29)): 0
COVID-19 outcome: Recovered (COVID-19; Serious (n = 6)): 5
cases with no change in ofatumumab treatment required (COVID-19; confirmed COVID-19 infection): 21 cases
cases with treatment temporarily interrupted due to confirmed COVID-19 infection (COVID-19; human, in vivo): 5 cases
cases with complete recovery (COVID-19; of 35 confirmed cases): 34 cases
confirmed COVID-19 cases, Non-serious (COVID-19; of 35 confirmed cases): Non-serious (n = 29)
COVID-19 symptoms duration (COVID-19; Patient ID 5409018): ~50 days
Outcome (COVID-19; Patient ID 5409018): Complete
COVID-19 symptoms duration (COVID-19; Patient ID 5608014): 18 days
Outcome (COVID-19; Patient ID 5608014): Complete
COVID-19 symptoms duration (COVID-19; Patient ID 5800004): ~30 days
Outcome (COVID-19; Patient ID 5800004): Fatal
COVID-19 symptoms duration (COVID-19; Patient ID 5800043): 11 days
Outcome (COVID-19; Patient ID 5800043): Complete
COVID-19 symptoms duration (COVID-19; Patient ID 5801015): 15 days
Outcome (COVID-19; Patient ID 5801015): Complete
COVID-19 symptoms duration (COVID-19; Patient ID 5806001): 10 days
Outcome (COVID-19; Patient ID 5806001): Complete
Infections observed after the first drop of IgG<LLN [1]: 45.5%
Infections observed after the first drop of IgG<LLN, number of patients [1]: 61
Number of patients with at least 1 infection AE by Grade: Grade 4 [1]: 0 n
infection AE by outcome: Recovered/resolved [1]: 0 n
infection AE by outcome: Recovered/resolved with sequelae [1]: 0 n
infection AE by outcome: Recovering/resolving [1]: 0 n
patients who received immunoglobulin substitution therapy for decrease in IgG/M [1]: none of the patients
patients who reported an infection post study drug discontinuation [1]: six of 32
serious opportunistic infections [1]: no cases
half-life at steady state [2]: approximately 16 days
B-cell repletion (B cells): B cells for all subjects were repleted, with the exception of one subject
ADCC activity (CD20 receptor on B-cells): No relevant difference
Number of patients with at least 1 infection AE by Grade: Grade 4 ([3]; IgG <LLN, N = 134): 0 n
infection AE by outcome: Fatal ([3]; IgG <LLN, N = 134): 0 n
infection AE by outcome: Fatal ([3]; IgM <LLN, N = 167): 0 n
infection AE by outcome: Fatal ([3]; IgM ≥LLN, N = 777): 0 n
cases of PML or Hepatitis B reactivation or serious potential OI (MS patients [4]): no cases
incidence of malignancy (MS patients [4]): no increased incidence
mean and median values of neutrophil count (MS patients [4]): remained within the normal ranges
risk of neutropenia (MS patients [4]): No risk of neutropenia
suppression of gadolinium (Gd) T1 lesions when compared to Aubagio (MS patients [5]; ASCLEPIOS I/II): highly significant suppression
annualized relapse rate (ARR) (MS patients [5]; ASCLEPIOS I): 0.11
reduction in annualized relapse rate (ARR) compared to Aubagio (teriflunomide) (MS patients [5]; ASCLEPIOS I): 50.5%
annualized relapse rate (ARR) (MS patients [5]; ASCLEPIOS II): 0.10
reduction in annualized relapse rate (ARR) compared to Aubagio (teriflunomide) (MS patients [5]; ASCLEPIOS II): 58.5%
relative risk reduction in 3-month confirmed disability progression (CDP) versus Aubagio (MS patients [5]; pre-specified pooled analyses): 34.4%
relative risk reduction in 6-month CDP versus Aubagio (MS patients [5]; pre-specified pooled analyses): 32.5%
increase of IgG levels (IgG levels; after two years (96 weeks)): about 3%
effect on IgG levels on the long term (IgG levels; in vivo): sustains and even increases IgG levels
IgM levels with longer duration (IgM): levels remained above the lower limit of normal
off-rate (dissociation rate of the antibody from the CD20 receptor) (CD20 receptor): lower off-rate
patients with IgG below LLN, n/N (serum IgG [6]): 134/944
patients with CD19+ B-cells below LLN (CD19+ B-cells; Week 1): 77.0%
patients with CD19+ B-cells below LLN, n/M (CD19+ B-cells; Week 1): 338/439
patients with CD19+ B-cells below LLN (CD19+ B-cells; Week 1, listed as OMB): (77.0) %
patients with CD19+ B-cells below LLN (CD19+ B-cells; Week 2): 95.0%
patients with CD19+ B-cells below LLN, n/M (CD19+ B-cells; Week 2): 420/442
patients with CD19+ B-cells below LLN (CD19+ B-cells; Week 2, listed as OMB): (95.0) %
patients with CD19+ B-cells below LLN (CD19+ B-cells; Week 4): (97.8) %
patients with CD19+ B-cells below LLN, n/M (CD19+ B-cells; Week 4): 440/450
patients with CD19+ B-cells below LLN (CD19+ B-cells; Week 12): 99.3%
patients with CD19+ B-cells below LLN, n/M (CD19+ B-cells; Week 12): 440/443
patients with CD19+ B-cells below LLN (CD19+ B-cells; Week 12, listed as OMB): (99.3) %
patients with CD19+ B-cells below LLN (CD19+ B-cells; Week 24): (98.4) %
patients with CD19+ B-cells below LLN, n/M (CD19+ B-cells; Week 24): 422/429
patients with CD19+ B-cells below LLN (CD19+ B-cells; Week 36): (98.8) %
patients with CD19+ B-cells below LLN, n/M (CD19+ B-cells; Week 36): 415/420
patients with CD19+ B-cells below LLN (CD19+ B-cells; Week 48): (98.3) %
patients with CD19+ B-cells below LLN, n/M (CD19+ B-cells; Week 48): 397/404
patients with CD19+ B-cells below LLN (CD19+ B-cells; Week 60): (96.7) %
patients with CD19+ B-cells below LLN, n/M (CD19+ B-cells; Week 60): 385/398
patients with CD19+ B-cells below LLN (CD19+ B-cells; Week 72): (98.2) %
patients with CD19+ B-cells below LLN, n/M (CD19+ B-cells; Week 72): 379/386
patients with CD19+ B-cells below LLN (CD19+ B-cells; Week 84): (98.9) %
patients with CD19+ B-cells below LLN, n/M (CD19+ B-cells; Week 84): 260/263
patients with CD19+ B-cells below LLN (CD19+ B-cells; Week 96): (99.4) %
patients with CD19+ B-cells below LLN, n/M (CD19+ B-cells; Week 96): 161/162
patients with CD19+ B-cells below LLN (CD19+ B-cells; Week 108): (97.9) %
patients with CD19+ B-cells below LLN, n/M (CD19+ B-cells; Week 108): 93/95
patients with CD19+ B-cells below LLN (CD19+ B-cells; Week 120): (100) %
patients with CD19+ B-cells below LLN, n/M (CD19+ B-cells; Week 120): 28/28
median CD19+ B-cell count (CD19+ B-cells; from Week 2 onwards): zero
patients in whom CD19+ B-cell depletion was maintained (CD19+ B-cells; throughout the treatment period): > 96%
IgM decline with treatment (serum IgM; MS studies): some level of IgM decline but the majority of the patients remained above LLN
change in mean IgM (serum IgM; Week 96 completers, Pool C2): -0.537 g/L
decline in mean IgM (serum IgM; Week 96 completers, Pool C2): 38.8%
proportion of patients with IgM levels below LLN and 10% below the LLN versus teriflunomide (serum IgM; any time post baseline and at Week 96, FIG. 8): higher proportion
patients with IgM levels on or above the LLN (serum IgM; any time post-baseline, FIG. 9): 82-89%
change in mean IgM value (serum IgM; baseline to Week 48, Pool C2): -0.420 g/L
decrease in mean IgM value (serum IgM; baseline to Week 48, Pool C2): 30.9%
mean serum IgM levels versus reference range (serum IgM; over time, reference range 0.40-2.30 g/L): remained well within the reference ranges
cytopenia during therapy (MS patients [7]): No cytopenia
IgG levels over long-term follow-up (IgG): stable over the long-term follow-up of >4 years
recovery of IgG levels after reduction until Week 36 (serum IgG [8]; ASCLEPIOS I and II, FIG. 7): recovered up to baseline levels by W72
change in mean serum IgG value from baseline (serum IgG [8]; Week 96): +0.249 g/L
patients with IgG levels 20% below the LLN (serum IgG [8]; Week 96 (Week-96 completers)): no ofatumumab patients
increase in mean serum IgG value from baseline (serum IgG [8]; Week 96, ASCLEPIOS studies): 2.2%
proportion of patients with IgG levels below the LLN versus teriflunomide (serum IgG [8]; any time post-baseline, FIG. 8): lower proportion
patients with IgG levels on or above the LLN (serum IgG [8]; any time post-baseline, FIG. 9): > 85%
proportion of patients with IgG below LLN (serum IgG [8]; anytime during post baseline visit): 14.2%
turning point at which the trend of decreasing IgG levels reverses (serum IgG [8]; in vivo): 36 week
mean serum IgG over time compared to baseline (serum IgG [8]; over 96 weeks treatment): no decrease in mean values; also recorded: No decrease in mean serum IgG
decrease of IgG levels (serum IgG [8]; week 72 and thereafter): no decrease
